Reference: patent US20190142860A1, “NUCLEIC ACID BASED TIA-1 INHIBITORS” (Aquinnah Pharmaceuticals, Inc., priority 2015, published 2019)

What was measured:
[1] = molecular target: Nucleolysin TIA-1 (endogenous mouse TIA1) (mouse) (UniProt P52912); assay: TIA1 IP-MS, WT1 cortex
[2] = molecular target: Nucleolysin TIA-1 (endogenous mouse TIA1) (mouse) (UniProt P52912); assay: TIA1 IP-MS, WT2 cortex
[3] = molecular target: Nucleolysin TIA-1 (endogenous mouse TIA1) (mouse) (UniProt P52912); assay: TIA1 IP-MS, WT3 cortex
[4] = molecular target: Nucleolysin TIA-1 (endogenous mouse TIA1) (mouse) (UniProt P52912); assay: TIA1 IP-MS, tau KO 3 cortex
[5] = molecular target: Nucleolysin TIA-1 (endogenous mouse TIA1) (mouse) (UniProt P52912); assay: TIA1 IP-MS, tau KO 1 cortex
[6] = molecular target: Nucleolysin TIA-1 (endogenous mouse TIA1) (mouse) (UniProt P52912); assay: TIA1 IP-MS, tau KO 2 cortex

Chain of UniProt P52912 (P52912 whole entry): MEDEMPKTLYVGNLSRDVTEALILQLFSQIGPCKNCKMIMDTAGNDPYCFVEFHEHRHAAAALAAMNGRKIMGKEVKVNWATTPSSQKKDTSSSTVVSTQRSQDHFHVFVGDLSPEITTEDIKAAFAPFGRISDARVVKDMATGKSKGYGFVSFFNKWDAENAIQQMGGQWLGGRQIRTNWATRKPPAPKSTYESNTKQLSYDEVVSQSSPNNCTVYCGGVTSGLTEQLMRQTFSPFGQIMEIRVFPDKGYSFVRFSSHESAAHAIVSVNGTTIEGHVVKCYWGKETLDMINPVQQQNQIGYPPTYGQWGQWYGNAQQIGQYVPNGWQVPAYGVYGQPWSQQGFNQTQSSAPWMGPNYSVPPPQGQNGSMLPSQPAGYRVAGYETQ

Row | Substance | total ion current (normalized to TIA1 = 1000) [1] | total ion current (normalized to TIA1 = 1000) [2] | total ion current (normalized to TIA1 = 1000) [3] | total ion current (normalized to TIA1 = 1000) [4] | total ion current (normalized to TIA1 = 1000) [5] | total ion current (normalized to TIA1 = 1000) [6]
1 | Protein kinase C gamma type (from UniProt P63318 1-697) | 39.3 | 0 | 0 | 0 | 30.3 | 0
2 | Puromycin-sensitive aminopeptidase (from UniProt Q11011 1-920) | 0 | 0 | 49.8 | 0 | 0 | 0
3 | Putative adenosylhomocysteinase 3 (from UniProt Q68FL4 2-613) | 2.62 | 76.3 | 45.1 | 0 | 8.48 | 72.5
4 | Pyridoxal kinase (from UniProt Q8K183 1-312) | 0 | 80.3 | 0 | 0 | 0 | 104
5 | Pyruvate dehydrogenase E1 component subunit beta, mitochondrial (from UniProt Q9D051 31-359) | 0 | 60.4 | 95.5 | 0 | 0 | 51
6 | RNA-binding protein EWS (from UniProt Q61545 1-655) | 6.73 | 32.5 | 0 | 0 | 0 | 0
7 | Rabphilin-3A (from UniProt P47708 1-681) | 0 | 40.4 | 0 | 0 | 17 | 0
8 | Ras-related protein Rab-5A (from UniProt Q9CQD1 1-215) | 0 | 126 | 302 | 0 | 0 | 185
9 | Septin-5 (from UniProt Q9Z2Q6 1-369) | 0 | 194 | 114 | 0 | 0 | 85.5
10 | Serine protease HTRA1 (from UniProt Q9R118 23-480) | 5.71 | 0 | 0 | 0 | 7.66 | 0
11 | Serine--tRNA ligase, cytoplasmic (from UniProt P26638 1-512) | 0 | 65.8 | 0 | 0 | 0 | 0
12 | Serine/arginine-rich splicing factor 2 (from UniProt Q62093 2-221) | 0 | 306 | 71.1 | 0 | 0 | 67.1
13 | Serine/arginine-rich splicing factor 4 (from UniProt Q8VE97 1-489) | 0 | 41.6 | 0 | 0 | 0 | 0
14 | Serine/threonine-protein phosphatase PP1-beta catalytic subunit (from UniProt P62141 2-327) | 3.65 | 136 | 79.5 | 0 | 99.4 | 24.6
15 | Sodium/potassium-transporting ATPase subunit beta-2 (from UniProt P14231 1-290) | 0 | 15.1 | 25.3 | 0 | 0 | 30.7
16 | Solute carrier family 2, facilitated glucose transporter member 3 (from UniProt P32037 1-493) | 0 | 107 | 190 | 0 | 0 | 90.2
17 | Sorting and assembly machinery component 50 homolog (from UniProt Q8BGH2 1-469) | 0 | 22.7 | 0 | 0 | 0 | 0
18 | Splicing factor 45 (from UniProt Q8JZX4 2-405) | 1.59 | 0 | 0 | 0 | 0 | 0
19 | Splicing factor U2AF 65 kDa subunit (from UniProt P26369 2-475) | 0 | 162 | 0 | 0 | 0 | 107
20 | Stress-70 protein, mitochondrial (from UniProt P38647 47-679) | 0 | 173 | 77.5 | 0 | 0 | 101
21 | Succinyl-CoA ligase [ADP-forming] subunit beta, mitochondrial (from UniProt Q9Z2I9 54-463) | 0 | 61.7 | 86.3 | 0 | 0 | 49
22 | Succinyl-CoA ligase [ADP/GDP-forming] subunit alpha, mitochondrial (from UniProt Q9WUM5 35-346) | 0 | 204 | 54.8 | 0 | 0 | 26.9
23 | Synaptosomal-associated protein 25 (from UniProt P60879 1-206) | 0 | 165 | 0 | 0 | 0 | 138
24 | Syntaxin-1B (from UniProt P61264 1-288) | 0 | 99.7 | 0 | 0 | 0 | 26.9
25 | Thy-1 membrane glycoprotein (from UniProt P01831 20-131) | 0 | 75.2 | 57.7 | 0 | 0 | 0
26 | Transcriptional activator protein Pur-alpha (from UniProt P42669 2-321) | 0 | 264 | 269 | 0 | 0 | 39.7
27 | Transformer-2 protein homolog beta (from UniProt P62996 2-288) | 0 | 70.9 | 0 | 0 | 0 | 33.3
28 | Tripartite motif-containing protein 2 (from UniProt Q9ESN6 1-744) | 0 | 106 | 0 | 0 | 0 | 0
